Experimental data as given in article doi:10.1101/2024.01.09.574565, “Human coronavirus HKU1 recognition of the TMPRSS2 host receptor” (bioRxiv, 2024).

B1: HKU1 spike (S) glycoprotein: S357A (protein)
parent chain: MLLIIFILPTTLAVIGDFNCTNFAINDLNTTVPRISEYVVDVSYGLGTYYILDRVYLNTTILFTGYFPKSGANFRDLSLKGTTYLSTLWYQKPFLSDFNNGIFSRVKNTKLYVNKTLYSEFSTIVIGSVFINNSYTIVVQPHNGVLEITACQYTMCEYPHTICKSKGSSRNESWHFDKSEPLCLFKKNFTYNVSTDWLYFHFYQERGTFYAYYADSGMPTTFLFSLYLGTLLSHYYVLPLTCNAISSNTDNETLQYWVTPLSKRQYLLKFDNRGVITNAVDCSSSFFSEIQCKTKSLLPNTGVYDLSGFTVKPVATVHRRIPDLPDCDIDKWLNNFNVPSPLNWERKIFSNCNFNLSTLLRLVHTDSFSCNNFDESKIYGSCFKSIVLDKFAIPNSRRSDLQLGSSGFLQSSNYKIDTTSSSCQLYYSLPAINVTINNYNPSSWNRRYGFNNFNLSSHSVVYSRYCFSVNNTFCPCAKPSFASSCKSHKPPSASCPIGTNYRSCESTTVLDHTDWCRCSCLPDPITAYDPRSCSQKKSLVGVGEHCAGFGVDEEKCGVLDGSYNVSCLCSTDAFLGWSYDTCVSNNRCNIFSNFILNGINSGTTCSNDLLQPNTEVFTDVCVDYDLYGITGQGIFKEVSAVYYNSWQNLLYDSNGNIIGFKDFVTNKTYNIFPCYAGRVSAAFHQNASSLALLYRNLKCSYVLNNISLTTQPYFDSYLGCVFNADNLTDYSVSSCALRMGSGFCVDYNSPSSSSSRRKRRSISASYRFVTFEPFNVSFVNDSIESVGGLYEIKIPTNFTIVGQEEFIQTNSPKVTIDCSLFVCSNYAACHDLLSEYGTFCDNINSILDEVNGLLDTTQLHVADTLMQGVTLSSNLNTNLHFDVDNINFKSLVGCLGPHCGSSSRSFFEDLLFDKVKLSDVGFVEAYNNCTGGSEIRDLLCVQSFNGIKVLPPILSESQISGYTTAATVAAMFPPWSAAAGIPFSLNVQYRINGLGVTMDVLNKNQKLIATAFNNALLSIQNGFSATNSALAKIQSVVNSNAQALNSLLQQLFNKFGAISSSLQEILSRLDALEAQVQIDRLINGRLTALNAYVSQQLSDISLVKFGAALAMEKVNECVKSQSPRINFCGNGNHILSLVQNAPYGLLFMHFSYKPISFKTVLVSPGLCISGDVGIAPKQGYFIKHNDHWMFTGSSYYYPEPISDKNVVFMNTCSVNFTKAPLVYLNHSVPKLSDFESELSHWFKNQTSIAPNLTLNLHTINATFLDLYYEMNLIQESIKSLNNSYINLKDIGTYEMYVKWPWYVWLLISFSFIIFLVLLFFICCCTGCGSACFSKCHNCCDEYGGHHDFVIKTSHDD
B2: HKU1 isolate N1 (genotype A) RBD, wildtype, without avi tag (domain or fragment)
chain: RIPDLPDCDIDKWLNNFNVPSPLNWERKIFSNCNFNLSTLLRLVHTDSFSCNNFDESKIYGSCFKSIVLDKFAIPNSRRSDLQLGSSGFLQSSNYKIDTTSSSCQLYYSLPAINVTINNYNPSSWNRRYGFNNFNLSSHSVVYSRYCFSVNNTFCPCAKPSFASSCKSHKPPSASCPIGTNYRSCESTTVLDHTDWCRCSCLPDPITAYDPRSCSQKKSLVGVGEHCAGFGVDEEKCGVLDGSYNVSCLCSTDAFLGWSYDTCVSNNRCNIFSNFILNGINSGTTCSNDLLQPNT
notes: also called HKU1 RBD; HKU1 RBD (without avi tag); not shown: His8, C-terminal, kept

Biological target: not given
Assay: not given
Settings: glycan lost
In the case of B1, the “other: neutralisation sensitivity, other: geometric mean ID50 dilution” value is reported as “increases”.

Biological target: human TMPRSS2 ectodomain, active (S441), with the C379-T447C disulfide bond (human, UniProt O15393 106-492, T447C)
Assay: enzyme inhibition kinetics (fluorogenic peptide substrate); 5 nM TMPRSS2 with serial dilutions of Boc-QAR-AMC in the presence of 215, 72 or 24 nM HKU1 RBD, 2 min preincubation, 22 °C; fit of competitive inhibition
Settings: both partners purified
Molecule B2 has a Ki of 38 ± 5 nM.

Biological target: HKU1 isolate N1 (genotype A) RBD, wildtype, avi-tagged and biotinylated (UniProt Q5MQD0)
Assay: BLI
Settings: parent: est. 0.51; read off a plot
“human TMPRSS2 ectodomain, active (S441), with the C379-T447C disulfide bond (from UniProt O15393) R470A” gave a response of 0.15 nm. With “human TMPRSS2 ectodomain, active (S441), with the C379-T447C disulfide bond (from UniProt O15393) Y414A” the response was 0.11 nm. For “human TMPRSS2 ectodomain, active (S441), with the C379-T447C disulfide bond (from UniProt O15393) Y469A”, the response was 0.36 nm.

Same assay, conditions: read off a plot
In the case of “human TMPRSS2 ectodomain, active (S441), with the C379-T447C disulfide bond (from UniProt O15393) Y414S”, the percent of parent is reported as 14 % WT. With “human TMPRSS2 ectodomain, active (S441), with the C379-T447C disulfide bond (from UniProt O15393) Y469N” the percent of parent was 5.7 % WT. “human TMPRSS2 ectodomain, active (S441), with the C379-T447C disulfide bond (from UniProt O15393) R470K” showed a percent of parent of 2.1 % WT. For “human TMPRSS2 ectodomain, active (S441), with the C379-T447C disulfide bond (from UniProt O15393) R413K”, the percent of parent was 52 % WT. For “human TMPRSS2 ectodomain, active (S441), with the C379-T447C disulfide bond (from UniProt O15393) S463Y”, the percent of parent was 2.3 % WT. Molecule “human TMPRSS2 ectodomain, active (S441), with the C379-T447C disulfide bond (from UniProt O15393) V415I” has a percent of parent of 47 % WT. Work on “human TMPRSS2 ectodomain, active (S441), with the C379-T447C disulfide bond (from UniProt O15393) R413V” yielded a percent of parent of 64 % WT. Molecule “human TMPRSS2 ectodomain, active (S441), with the C379-T447C disulfide bond (from UniProt O15393) S463F” has a percent of parent of 2.3 % WT. In the case of “human TMPRSS2 ectodomain, active (S441), with the C379-T447C disulfide bond (from UniProt O15393) A468P”, the percent of parent is reported as 57 % WT. Molecule “human TMPRSS2 ectodomain, active (S441), with the C379-T447C disulfide bond (from UniProt O15393) D417N” has a percent of parent of 7.5 % WT. For “human TMPRSS2 ectodomain, active (S441), with the C379-T447C disulfide bond (from UniProt O15393) L419M”, the percent of parent was 30 % WT. Work on “human TMPRSS2 ectodomain, active (S441), with the C379-T447C disulfide bond (from UniProt O15393) S412N” yielded a percent of parent of 77 % WT. “human TMPRSS2 ectodomain, active (S441), with the C379-T447C disulfide bond (from UniProt O15393) L419A” gave a percent of parent of 2.7 % WT. “human TMPRSS2 ectodomain, active (S441), with the C379-T447C disulfide bond (from UniProt O15393) K340D” gave a percent of parent of 38 % WT. “human TMPRSS2 ectodomain, active (S441), with the C379-T447C disulfide bond (from UniProt O15393) S463T” gave a percent of parent of 2.7 % WT. Work on “human TMPRSS2 ectodomain, active (S441), with the C379-T447C disulfide bond (from UniProt O15393) T341S” yielded a percent of parent of 61 % WT. For “human TMPRSS2 ectodomain, active (S441), with the C379-T447C disulfide bond (from UniProt O15393) S441A”, the percent of parent was 95 % WT. Work on “human TMPRSS2 ectodomain, active (S441), with the C379-T447C disulfide bond (from UniProt O15393) R409K” yielded a percent of parent of 36 % WT. With “human TMPRSS2 ectodomain, active (S441), with the C379-T447C disulfide bond (from UniProt O15393) Y414L” the percent of parent was 2.2 % WT. Molecule “human TMPRSS2 ectodomain, active (S441), with the C379-T447C disulfide bond (from UniProt O15393) R409T” has a percent of parent of 58 % WT.

Biological target: human TMPRSS2 ectodomain harboring the S441A residue substitution and the C379-T447C disulfide bond (UniProt O15393)
Assay: BLI
Settings: parent: est. 0.54; read off a plot
“HKU1 isolate N1 (genotype A) RBD, wildtype, avi-tagged and biotinylated (from UniProt Q5MQD0) H488A” gave a response of 0.17 nm. In the case of “HKU1 isolate N1 (genotype A) RBD, wildtype, avi-tagged and biotinylated (from UniProt Q5MQD0) Y528A”, the response is reported as 0.11 nm. For “HKU1 isolate N1 (genotype A) RBD, wildtype, avi-tagged and biotinylated (from UniProt Q5MQD0) E505A”, the response was 0.37 nm.
